Experimental data as given in article PMC7615196, “PIM1 controls GBP1 activity to limit self-damage and to guard against pathogen infection” (Science (New York, N.Y.), 2023).

Tests used:
[1] = biological target: T1, in vitro phosphorylated recombinant GBP1 (human, UniProt P32455 1-592, phosphoserine at 156 (GBP1pS156); Ser569 and Thr590 also identified as sites phosphorylated by PIM1 in vitro)
T1 chain: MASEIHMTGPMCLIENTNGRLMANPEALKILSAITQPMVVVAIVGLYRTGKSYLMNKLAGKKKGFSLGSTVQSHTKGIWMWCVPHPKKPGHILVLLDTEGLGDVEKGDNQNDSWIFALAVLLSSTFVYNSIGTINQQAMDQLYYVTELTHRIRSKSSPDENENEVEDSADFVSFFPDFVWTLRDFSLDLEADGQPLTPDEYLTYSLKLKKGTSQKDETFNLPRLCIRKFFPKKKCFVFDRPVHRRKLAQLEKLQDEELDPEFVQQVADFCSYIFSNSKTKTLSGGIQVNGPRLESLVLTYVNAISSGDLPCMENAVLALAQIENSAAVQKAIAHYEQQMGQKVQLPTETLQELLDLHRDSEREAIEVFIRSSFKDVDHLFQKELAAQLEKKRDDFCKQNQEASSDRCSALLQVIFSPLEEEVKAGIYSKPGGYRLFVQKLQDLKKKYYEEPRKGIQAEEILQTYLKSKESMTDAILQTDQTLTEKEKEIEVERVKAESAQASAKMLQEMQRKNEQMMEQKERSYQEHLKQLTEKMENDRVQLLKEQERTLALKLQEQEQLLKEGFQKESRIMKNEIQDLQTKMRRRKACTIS

[2] = biological target: T1, in vitro phosphorylated recombinant GBP1; assay: ITC; GBP1 phosphorylated at S156
[3] = biological target: the molecule itself; assay: cryo-EM structure; single particle cryo-EM of the SEC-purified phospho-GBP1:14-3-3σ complex; crystal structures docked as rigid bodies

- GTPase activity assay (rate of GTP hydrolysis, free phosphate by Malachite Green), 2 μM purified GBP1:14-3-3σ complex compared to free GBP1 [1]: > 8 fold
- Kd [2]: 400 nM
B1: recombinant 14-3-3σ (natural protein, human, UniProt P31947 1-248, looked up)
chain: MERASLIQKAKLAEQAERYEDMAAFMKGAVEKGEELSCEERNLLSVAYKNVVGGQRAAWRVLSSIEQKSNEEGSEEKGPEVREYREKVETELQGVCDTVLGLLDSHLIKEAGDAESRVFYLKMKGDYYRYLAEVATGDDKKRIIDSARSAYQEAMDISKKEMPPTNPIRLGLALNFSVFHYEIANSPEEAISLAKTTFDEAMADLHTLSEDSYKDSTLIMQLLRDNLTLWTADNAGEEGGEAPQEPQS
notes: 14-3-3σ (stratifin), ORF from cDNA of IFNγ-primed THP-1 WT cells via pLenti-Tet-14-3-3σ into pET15d-6xHis-3C; homodimer in the cryo-EM map; also called SFN; YWHAS; source: E. coli BL21, purified (Ni-NTA, 3C cleavage, reverse Ni-IMAC, SEC); not shown: His6, N-terminal, cleaved
- stoichiometry N [3]: 2
